Settings in all cases: remark: other sources report otherwise
The target of assay [1] is HLA-B08:01 (human). Briefly: peptide-MHC-I complex dissociation half-life, 125I-b2m, 37 C.
Assay [2] addresses HLA-B08:01 (human). Kind of assay: competitive inhibition of 125I-labeled probe peptide binding to purified HLA class I.
Assay [3] concerns the target HLA-A02:01 (human). Kind of assay: pMHC-I dissociation half-life, 125I-b2m.
In assay [4] the target is HLA-A02:01 (human). Briefly: competition with 125I-labelled probe peptide, purified HLA.

B1: … (ALK, L1196M) (peptide)
peptide: SLPRFILMEL
Take B1: the Stability (T1/2 (h)) in assay [1] was determined as 0 h.

B2: … (CNOT1(+1)) (peptide)
peptide: SVCFFFFSV
As for B2, the Stability (T1/2 (h)) in assay [1] came out at 0 h.

B3: … (ESR1, S463P) (peptide)
peptide: FLPSTLKSL
What is called IC50 is the concentration that inhibits the measured activity by half. Read a low IC50 as greater potency in that assay. Molecule B3 registered an IC50 in assay [2] of 1970 nM. In addition, the Stability (T1/2 (h)) in assay [1] was 0 h.

B4: … (peptide)
peptide: LVVVGAVGV
B4 came in with a Stability (T1/2 (h)) in assay [3] of 0.6 h.

B5: … (peptide)
peptide: LVVVGACGV
On to B5, for which, in assay [4], the IC50 was 1210 nM. In assay [3], this molecule returned a Stability (T1/2 (h)) of 0.6 h.

B6: … (peptide)
peptide: LVVVGADGV
B6 had a 50% inhibitory concentration (IC50) in assay [4] of 1190 nM. Moreover, the Stability (T1/2 (h)) in assay [3] amounted to 0 h.

B7: … (EGFR, T790M) (peptide)
peptide: QLIMQLMPF
Turning to B7, the Stability (T1/2 (h)) in assay [1] came out at 0 h.

B8: … (AKT1, E17K) (peptide)
peptide: WLHKRGKYI
On to B8, for which the concentration for half-maximal inhibition (IC50) in assay [2] worked out at 417 nM. The molecule further showed a Stability (T1/2 (h)) in assay [1] of 1.3 h.
